B1: ZNF449 (parent)
chain: CTHCSKSFRQRAGLIMHQVTHFRG
B2: CCDC6 (parent)
chain: ASVTIQARAEQEEEFISNTLFKKI
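Also: lentivirally expressed fusions sorted by FACS into six bins by GFP to DsRed ratio, PSI derived from sequencing read proportions per bin multiplied by bin number.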

The variants in the first data set derive from B1. Description: protein stability index of a GFP-peptide fusion (GPS, HEK-293T) (PSI 1-6); higher = more stable. The note with it: c terminus: a fixed tail appended.
On to CTHCSKSFRQRAGLIMHQVTHFRY [G24Y], for which the protein stability index was 2.41. On to CTHCSKSFRQRAGLIMHQVTHFRV [G24V], for which the protein stability index was 3.46.

Consider CTHCSKSFRQRAGLIMHQVTHFRS [G24S], for which the protein stability index came to 2.33. Consider CTHCSKSFRQRAGLIMHQVTHFRT [G24T], for which the protein stability index was found to be 2.69. With CTHCSKSFRQRAGLIMHQVTHFRR [G24R], the protein stability index was 2.29. On to CTHCSKSFRQRAGLIMHQVTHFRW [G24W], for which the protein stability index came out at 3.25.

In the next data set the parent is B2. The description is as above. The conditions noted are these: c terminus: a fixed tail appended.
As to WSVTIQARAEQEEEFISNTLFKKI [A1W], the protein stability index was found to be 1.86. SSVTIQARAEQEEEFISNTLFKKI [A1S]: the protein stability index turned out to be 3.75. As for ESVTIQARAEQEEEFISNTLFKKI [A1E], the protein stability index came out at 4.39. Same read-out and setting: the value for LSVTIQARAEQEEEFISNTLFKKI [A1L] was 2.48. Take GSVTIQARAEQEEEFISNTLFKKI [A1G]: the protein stability index came out at 3.98. With RSVTIQARAEQEEEFISNTLFKKI [A1R], the protein stability index was 3.51. On the same count and under the same terms, the value for HSVTIQARAEQEEEFISNTLFKKI [A1H] was 3.85. As for FSVTIQARAEQEEEFISNTLFKKI [A1F], the protein stability index is 2.08. Regarding QSVTIQARAEQEEEFISNTLFKKI [A1Q], the protein stability index was determined as 4.09. In the case of ISVTIQARAEQEEEFISNTLFKKI [A1I], the protein stability index was found to be 1.84. Turning to DSVTIQARAEQEEEFISNTLFKKI [A1D], the protein stability index was found to be 4.27. Take NSVTIQARAEQEEEFISNTLFKKI [A1N]: the protein stability index was 3.78.

As for MSVTIQARAEQEEEFISNTLFKKI [A1M], the protein stability index is 3.1. Regarding VSVTIQARAEQEEEFISNTLFKKI [A1V], the protein stability index came to 2.56. As for PSVTIQARAEQEEEFISNTLFKKI [A1P], the protein stability index was 3.59. In the case of TSVTIQARAEQEEEFISNTLFKKI [A1T], the protein stability index amounted to 3.85. Still for that read-out and setting: for CSVTIQARAEQEEEFISNTLFKKI [A1C] the value was 3.07; for YSVTIQARAEQEEEFISNTLFKKI [A1Y], 2.27.

On to KSVTIQARAEQEEEFISNTLFKKI [A1K], for which the protein stability index came out at 3.68. For the variant AAVTIQARAEQEEEFISNTLFKKI [S2A], the protein stability index was 4.01. For ADVTIQARAEQEEEFISNTLFKKI [S2D], the protein stability index was 4.58. The same measure, in the same setting: for AFVTIQARAEQEEEFISNTLFKKI [S2F] the value was 2.11. Consider ANVTIQARAEQEEEFISNTLFKKI [S2N], for which the protein stability index was determined as 3.99. In the case of AKVTIQARAEQEEEFISNTLFKKI [S2K], the protein stability index worked out at 3.38. As for ACVTIQARAEQEEEFISNTLFKKI [S2C], the protein stability index is 2.84. With AEVTIQARAEQEEEFISNTLFKKI [S2E], the protein stability index is 4.11. The same measure, in the same setting: the value for ARVTIQARAEQEEEFISNTLFKKI [S2R] was 3.35; that for AGVTIQARAEQEEEFISNTLFKKI [S2G] was 3.92.

With AMVTIQARAEQEEEFISNTLFKKI [S2M], the protein stability index is 2.81.

As to AYVTIQARAEQEEEFISNTLFKKI [S2Y], the protein stability index amounted to 2.19. For the variant AIVTIQARAEQEEEFISNTLFKKI [S2I], the protein stability index was found to be 3.08. As for AQVTIQARAEQEEEFISNTLFKKI [S2Q], the protein stability index is 3.71.

Consider AWVTIQARAEQEEEFISNTLFKKI [S2W], for which the protein stability index was 2.37. Still for that read-out and setting: the value for AVVTIQARAEQEEEFISNTLFKKI [S2V] was 2.73; that for AHVTIQARAEQEEEFISNTLFKKI [S2H] was 3.17; that for ATVTIQARAEQEEEFISNTLFKKI [S2T] was 3.33. Turning to ALVTIQARAEQEEEFISNTLFKKI [S2L], the protein stability index came to 2.32. On the same count and under the same terms, for APVTIQARAEQEEEFISNTLFKKI [S2P] the value was 4.25; for ASVTHQARAEQEEEFISNTLFKKI [I5H], 4.32; for ASVTDQARAEQEEEFISNTLFKKI [I5D], 4.84.

Take ASVTLQARAEQEEEFISNTLFKKI [I5L]: the protein stability index is 3.84. On to ASVTEQARAEQEEEFISNTLFKKI [I5E], for which the protein stability index was determined as 4.58. In the case of ASVTKQARAEQEEEFISNTLFKKI [I5K], the protein stability index turned out to be 4.65. On the same count and under the same terms, for ASVTCQARAEQEEEFISNTLFKKI [I5C] the value was 4.5; for ASVTNQARAEQEEEFISNTLFKKI [I5N], 4.49. As for ASVTMQARAEQEEEFISNTLFKKI [I5M], the protein stability index was 4.29. With ASVTAQARAEQEEEFISNTLFKKI [I5A], the protein stability index is 4.34. For ASVTGQARAEQEEEFISNTLFKKI [I5G], the protein stability index came to 4.75.

As for ASVTPQARAEQEEEFISNTLFKKI [I5P], the protein stability index was determined as 4.7. Turning to ASVTFQARAEQEEEFISNTLFKKI [I5F], the protein stability index was determined as 3.96. As to ASRTIQARAEQEEEFISNTLFKKI [V3R], the protein stability index is 3.9. On the same count and under the same terms, for ASDTIQARAEQEEEFISNTLFKKI [V3D] the value was 4.89; for ASSTIQARAEQEEEFISNTLFKKI [V3S], 4.38; for ASGTIQARAEQEEEFISNTLFKKI [V3G], 4.44. Regarding ASPTIQARAEQEEEFISNTLFKKI [V3P], the protein stability index was found to be 4.5. Regarding ASLTIQARAEQEEEFISNTLFKKI [V3L], the protein stability index was 3.84. In the case of ASFTIQARAEQEEEFISNTLFKKI [V3F], the protein stability index was 3.44. Take ASNTIQARAEQEEEFISNTLFKKI [V3N]: the protein stability index stood at 4.6. Turning to ASCTIQARAEQEEEFISNTLFKKI [V3C], the protein stability index was 1.9. Regarding ASATIQARAEQEEEFISNTLFKKI [V3A], the protein stability index was found to be 4.51. Still for that read-out and setting: the value for ASETIQARAEQEEEFISNTLFKKI [V3E] was 4.86; that for ASYTIQARAEQEEEFISNTLFKKI [V3Y] was 3.42; that for ASTTIQARAEQEEEFISNTLFKKI [V3T] was 4.57. Same read-out and setting: for ASWTIQARAEQEEEFISNTLFKKI [V3W] the value was 3.32; for ASITIQARAEQEEEFISNTLFKKI [V3I], 3.09; for ASMTIQARAEQEEEFISNTLFKKI [V3M], 3.5. For the variant ASKTIQARAEQEEEFISNTLFKKI [V3K], the protein stability index was 4.33. For the variant ASHTIQARAEQEEEFISNTLFKKI [V3H], the protein stability index came out at 4.1.

Take ASQTIQARAEQEEEFISNTLFKKI [V3Q]: the protein stability index amounted to 4.42. On to ASVLIQARAEQEEEFISNTLFKKI [T4L], for which the protein stability index came to 3.21. ASVVIQARAEQEEEFISNTLFKKI [T4V]: the protein stability index was found to be 2.88. Consider ASVAIQARAEQEEEFISNTLFKKI [T4A], for which the protein stability index worked out at 4.46. On to ASVGIQARAEQEEEFISNTLFKKI [T4G], for which the protein stability index is 3.63.

With ASVFIQARAEQEEEFISNTLFKKI [T4F], the protein stability index is 2.44.

As to ASVPIQARAEQEEEFISNTLFKKI [T4P], the protein stability index is 4.32. Consider ASVMIQARAEQEEEFISNTLFKKI [T4M], for which the protein stability index came out at 3.2. On the same count and under the same terms, the value for ASVCIQARAEQEEEFISNTLFKKI [T4C] was 3.52; that for ASVEIQARAEQEEEFISNTLFKKI [T4E] was 4.41; that for ASVWIQARAEQEEEFISNTLFKKI [T4W] was 2.06. For ASVIIQARAEQEEEFISNTLFKKI [T4I], the protein stability index was determined as 3.33. On the same count and under the same terms, for ASVDIQARAEQEEEFISNTLFKKI [T4D] the value was 4.17; for ASVKIQARAEQEEEFISNTLFKKI [T4K], 3.29.

As for ASVRIQARAEQEEEFISNTLFKKI [T4R], the protein stability index came to 3.14. On to ASVNIQARAEQEEEFISNTLFKKI [T4N], for which the protein stability index came to 3.98. In the case of ASVQIQARAEQEEEFISNTLFKKI [T4Q], the protein stability index was found to be 3.74. On to ASVHIQARAEQEEEFISNTLFKKI [T4H], for which the protein stability index was 3.61. Same read-out and setting: for ASVSIQARAEQEEEFISNTLFKKI [T4S] the value was 3.86. ASVYIQARAEQEEEFISNTLFKKI [T4Y]: the protein stability index worked out at 2.56.

Values taken from the supplement of paper PMC10567573.
